# Data taken from patent publication US20230134571A1 (INTERNATIONAL AIDS VACCINE INITIATIVE, published 2023).
# Tests used:
# Assay in all cases: cell-based or functional assay
# [1] = target: HIV Env, isolate ZM214M.PL15 (HIV)
# [2] = target: HIV Env, isolate CT140_140_B6 (HIV)
# [3] = target: HIV Env, isolate CAP69.1.12_TA7.1 (HIV)
# [4] = target: HIV Env, isolate CeCAP210_TA5 (HIV)
# [5] = target: HIV Env, isolate CT810_G4-7 (HIV)
# [6] = target: HIV Env, isolate ZM106F.PB9 (HIV)
# [7] = target: HIV Env, isolate So405_T24_5 (HIV)
# [8] = target: HIV Env, isolate 20927783 (HIV)
# [9] = target: HIV Env, isolate 234-F1-16-57 (HIV)
binder,measurement,setting,value
"ePGDM9 (antibody, V domains shown) VH: QAQLVQSGPEVRKPGTSVKVSCKNPGNTLTTYDLHWVRQVPGQGLQWMGWISHEGDKKVIVERFKAKVTIDWDRSTNTAYLQLSGLTSEDTAVYYCAKGSKHRLRDYALYDEDGALNWAVDVDYLANLEFWGQGTAVTVSS VL: DIVLTQSPLSLSVTPGESASISCKSSQSLIHGDRNNYLAWYVQKPGRSPQLLIDLASERASGVPDRFSGSGSRKDFTLKISRVETEDVGTYYCMQGRESPWTFGQGTKVDIK",IC50,[1],> 50 µg/mL
same,IC80,[1],> 50 µg/mL
same,IC50,[2],0.248 µg/mL
same,IC80,[2],1.83 µg/mL
same,IC50,[3],0.01 µg/mL
same,IC80,[3],0.039 µg/mL
same,IC50,[4],0.009 µg/mL
same,IC80,[4],0.073 µg/mL
same,IC50,[5],0.087 µg/mL
same,IC80,[5],5.53 µg/mL
same,IC50,[6],0.007 µg/mL
same,IC80,[6],0.024 µg/mL
same,IC50,[7],14.3 µg/mL
same,IC80,[7],> 50 µg/mL
same,IC50,[8],0.005 µg/mL
same,IC80,[8],0.017 µg/mL
same,IC50,[9],< 0.0006 µg/mL
same,IC80,[9],0.002 µg/mL
